Measured values taken from article doi:10.1101/394452 (bioRxiv, 2018).

Biological target: the molecule itself
Assay: small angle X-ray scattering

Protein | binding result
phospho-mimetic tbWag31-T73E (DivIVA/Wag31 from M. tuberculosis, Rv2145c) (natural protein) MPLTPADVHNVAFSKPPIGKRGYNEDEVDAFLDLVENELTRLIEENSDLRQRINELDQELAAGGGAGVTPQAEQAIPAYEPEPGKPAPAAVSAGMNEEQALKAARVLSLAQDTADRLTNTAKAESDKMLADARANAEQILGEARHTADATVAEARQRADAMLADAQSRSEAQLRQAQEKADALQADAERKHSEIMGTINQQRAVLEGRLEQLRTFEREYRTRLKTYLESQLEELGQRGSAAPVDSNADAGGFDQFNRGKN | binds
phospho-ablative tbWag31-T73A (DivIVA/Wag31 from M. tuberculosis, Rv2145c) (natural protein) MPLTPADVHNVAFSKPPIGKRGYNEDEVDAFLDLVENELTRLIEENSDLRQRINELDQELAAGGGAGVTPQAAQAIPAYEPEPGKPAPAAVSAGMNEEQALKAARVLSLAQDTADRLTNTAKAESDKMLADARANAEQILGEARHTADATVAEARQRADAMLADAQSRSEAQLRQAQEKADALQADAERKHSEIMGTINQQRAVLEGRLEQLRTFEREYRTRLKTYLESQLEELGQRGSAAPVDSNADAGGFDQFNRGKN | binds
